Experimental data reported in the DeepSol protein solubility set.

Test: soluble on expression in E. coli; label from the status in PepcDB or PDB records

Row | Sequence | soluble on expression in E. coli
1 | MVRIEVIDIEKPEGVEVIIGQGNFSIFTVDDLARALLTAVPGIKFGIAMNEAKPQLTRYTGNDPELEALAAKNAVKIGAGHVFVILMKNAYPINVLNTIKNHPAVAMIYGASENPFQVIVAETELGRAVIGVVDGKAANKIETDEQKKERRELVEKIGYKID | soluble
2 | MPLSPTSVPLTVKEFEKALCGICGGCSSACGYIAYLKQDELVDLYGHPHDPNGIGSFCTKGITYIQEIPKNPLRITKPLLREGNNFREVEFQETKKLIKENLKGKVAFFLDRFAGIEEYLIARSLTEEVFSDSLYLPFKQTSVRAQDWVDKKALFIFEAEPTFSEVMLTRWIVDAFEKDAYIFTAGSRYTTVFQKSKEKVLTTPEKTTEILQALSEGRFEGKAQKFLEFFGKESVVIVGDTLLRSPFRGKVLKTLKEISEKYGADYSIVGNITPFPVKSLKEFLERLGEFDTLVLFGNPFIYLSDEQIQKLKDKFVINFAYFPTITANHSTLIIPRTTFAEREFIVKGFGFLAHSPQVLNAPFPQPYEYFESSFDVEDFLKECGVKLEELKEKEGGVDISMKDITEVDINEEDRSESGELWFICDNTLAEELGHWNPWTHALEREQFAYVNQKTKERLNIGNLIEINGVKLKVKVNNNLADNVVFVPNSFEEFQPFDPGIRVGRLMKKPFFKLEVLNLNV | not soluble
3 | MGSDKIHHHHHHMAIEITTAEKRLLQRVSIPPRPETLLTVSREAKKSEPDVNVIAESISADMSIAAAVLQVVNSAAYRRAREVDSIQQAVMTLGFRRVFPIVRAVALKSALTSDYDLSEFWRYNEWVAGACVMIAEAIGRPELRDHAYMLGLFQSSGIPVMLAEFDDYADLLNAAESTPWQQVQAKELELFQTSHTTIGALLAQQWKLPKIVVEVIYYLFEDSSIFNHSSELDNLTLDLLGILKISRYAIDLRTRSLAGEEEWQYVQDGVLEHFQIDEFKVDEMLQIVHEELFDTEA | not soluble
4 | MSLESSDVPRELIESIKDVIGRKIKISVKKKVKLEVKGDKVENKVLVLTSCRAFLVTARIPTKLELTFSYLEIHGVVCSKSAQMIVETEKCSISMKMASPEDVSEVLAHIGTCLRKIFPGLSPVRIMKKVSMEPSERLASLQALWDSQTVAEQGPCGGFSQMYACVCDWLGFSYREEVQWDVDTIYLTQDTRELNLQDFSHLDHRDLIPIIAALEYNQWFTKLSSKDLKLSTDVCEQILRVVSRSNRLEELVLENAGLRTDFAQKLASALAHNPNSGLHTINLAGNPLEDRGVSSLSIQFAKLPKGLKHLNLSKTSLSPKGVNSLSQSLSANPLTASTLVHLDLSGNVLRGDDLSHMYNFLAQPNAIVHLDLSNTECSLDMVCGALLRGCLQYLAVLNLSRTVFSHRKGKEVPPSFKQFFSSSLALMHINLSGTKLSPEPLKALLLGLACNHNLKGVSLDLSNCELRSGGAQVLEGCIAEIHNITSLDISDNGLESDLSTLIVWLSKNRSIQHLALGKNFNNMKSKNLTPVLDNLVQMIQDEESPLQSLSLADSKLKTEVTIIINALGSNTSLTKVDISGNGMGDMGAKMLAKALQINTKLRTVIWDKNNITAQGFQDIAVAMEKNYTLRFMPIPMYDASQALKTNPEKTEDALQKIENYLLRNHETRKEGHHHHHH | soluble
5 | MRLTEGIVVDSVLTFGKLRFSALRREVRKQNEDGTVSNEVKERTYNLKSSAQGRMIQVSIPANVPLREFAYDAEVELVNPIVDTVANYVFREGTTVNWFIKADDLVLKRQPNQGNSTNQIEGKK | not soluble
6 | IPMRLLSDCPQFSRKTVKLLTNGGDMLELCYELRLPFVHWISVNQKSSFKRYEISHVYRRAIGHSPPNPCLQADFDIVGGTLSLTEAEVLKVIVDITTHIFHRGSCDIHLNHGDLLDAIWSWAGIKAEHRRKVAELLSMMGSLRPQSSERKLKWVFIRRQLLQELKLPEAVVNRLQTVASRFCGDADQALPRLRGALRADRPTRKALDELSNLLTYLRVWRIEEHVHIDVLMPPTESYHRNLFFQVFLTKENSSGTSNDGVLLAVGGRYDWLVQEVCDREHKMNLPGAVGVSLALETIFQHLPMDLRPIRNEVSTSVLVCSRGGGGLLVQRMELVAELWEKSIKAEFVPTPDPSLTEQYEYANEHEIKCLVIITESGVAQNQIEFVKVRHLELKKEKVVGR | soluble
7 | MGSDKIHHHHHHMLHQANRTGASTRVEFILPDSIEGYIPLKADLHLHTYFSDGHLSPSARVREAWLDGLDAISVTDHIEYHPADTDMIGYLGATLPDGIEAHNVNKKTNVKPKQDLNKSVELTKKAAVSYGLLIIPGIEITREPKGIGHYNALFTTDNNGIYDPDPLTAIRNAKAQGALVMHNHPGWRRESIQHPDFELKAYGEGLIDGIEANNGTAFCPGTIDRAKEDNLFVASTTDLHDTSFEEYIGRGLRRDMTIILAKDRSLDAMRDALENRRTIGYGAGGTLMGQEYLLRQLFMSCVSISPVNGHNIQLKNPTSLRFIIHPDGKNPIVLPEFSSIILSDKDRGFSVDNAWTGADSFLRISL | not soluble
8 | LLTPQYISEAKIYVLSKETTLTSLADLQMGTQLTQDYKELIGSRPVMQEVINTLNLDITYRQLAEKLKLENPKDTRILYLTVTDPNPYMAKAIVDEIANAASDYIGEIMEMTPPKLIEDGMVATVQTSPNVKKN | not soluble
9 | MGSDKIHHHHHHMITAAVVTFHTSRKDLIRLIDCVLQSSVDKFFIIDNSTNDALRELESVSERITYIYSDNLGFGSGHNIAIDRAIDLGSDYHIIINPDIYWNGDIIEQLVQFMDQNKDCGLVMPKILYPNGEVQYLCKLLPTPLDLFGRRFIPFKMFQEKRNAWYEMHWSGYDKVMEVPSLSGCFMFIRTDILKKTGGFDKRFFMYAEDMDLCRRIGEITRTMYYPSVLVFHEYEKGSYKNRKLLKYHICSIIKYFNKWGWFIDKKRRKKNDYCLKLTEHIRN | not soluble
10 | MTRHSAVRQAIIAALKKTDDGSTTFFDGRPVVVEEDELPAVAVYLSDAQYTGPEVDGDIWSAVLHVEVFLKATAPDSALDEQMENRVYPALGSVAGLGDIIRTMSAQGYNYQRDDEMAMWGSADLSYDITYSM | not soluble
11 | GSDQVQKVDQYLYHMRLSDETLLEISKRFRKEMEKGLGATTHPTAAVKMLPTFVRSTPDGTEHGEFLALDLGGTNFRVLWVKVTDNGLQKVEMENQIYAIPEDIMRGSGTQLFDHIAECLANFMDKLQIKDKKLPLGFTFSFPCHQTKLDESFLVSWTKGFKSSGVEGRDVVALIRKAIQRRGDFDIDIVAVVNDTVGTMMTCGYDDHNCEIGLIVGTGSNACYMEEMRHIDMVEGDEGRMCINMEWGAFGDDGSLNDIRTEFDQEIDMGSLNPGKQLFEKMISGMYMGELVRLILVKMAKEELLFGGKLSPELLNTGRFETKDISDIEGEKDGIRKAREVLMRLGLDPTQEDCVATHRICQIVSTRSASLCAATLAAVLQRIKENKGEERLRSTIGVDGSVYKKHPHFAKRLHKTVRRLVPGCDVRFLRSEDGSGKGAAMVTAVAYRLADQHRARQKTLEHLQLSHDQLLEVKRRMKVEMERGLSKETHASAPVKMLPTYVCATPDGTEKGDFLALDLGGTNFRVLLVRVRNGKWGGVEMHNKIYAIPQEVMHGTGDELFDHIVQCIADFLEYMGMKGVSLPLGFTFSFPCQQNSLDESILLKWTKGFKASGCEGEDVVTLLKEAIHRREEFDLDVVAVVNDTVGTMMTCGFEDPHCEVGLIVGTGSNACYMEEMRNVELVEGEEGRMCVNMEWGAFGDNGCLDDFRTEFDVAVDELSLNPGKQRFEKMISGMYLGEIVRNILIDFTKRGLLFRGRISERLKTRGIFETKFLSQIESDCLALLQVRAILQHLGLESTCDDSIIVKEVCTVVARRAAQLCGAGMAAVVDRIRENRGLDALKVTVGVDGTLYKLHPHFAKVMHETVKDLAPKCDVSFLQSEDGSGKGAALITAVACRIREAGQ | soluble
12 | MYSPKRVKLNVTSGMRKRPETGENNDDLYPPTALARNGISPYFIGKPRRKIVVETPSDSAQQQPPFKSRSQQNGLDDELDGIIIDEDEDRTVDVSFSQKQDTRKLKSRPFLGEKSSFKLGEIPKPKEEKRREEPFTMRGFDFGSDDKVTKIRDKICDIVDPTNARRTDPNFIRQMHENTLKGIEVASNPHFKKTRAPTKNRAAIQNTLGTLYPSFTTAAGQDPQNSKFQVPLDRQSSSQSIGSLAGIPPARRAPDIPKRCSNPLIRKAMGMDTEGGGKDEKMSGLRAEPTLKHFDENIISLIESEIMSVNNEIGWADVAGLEGAKKALREIVVLPFKRPDVFTGIRAPPKGVLLFGPPGTGKTMIGRCVASQCKATFFNISASSLTSKWVGEGEKLVRALFSVARLKLPSVIFIDEIDSLLSSRSESEHESSRRIKTEFLVQLDGVNTAPDERLLVLGATNRPQELDEAARRRFQKRLYIALPEPESRTQIVQNLLVGTRHDITNHNLERIRELTDGYSGADMRQLCTEAAMGPIRDIGDDIETIDKDDIRAVTVMDFAEAARVVRPTVDDSQLDAYAAWDKKFGCLPPPSISR | not soluble
13 | MSIYSKILVVADINNDEQPALARAVQLAQKSVSRSRITFFLSIYDFSYDMTSMLSVDERDAMRRGVIHQREQWMRKIAQPYLNDSFDFDVCVVWHNRPYEAIIAEVYAGGHDLLIKGTRKHDVLESVIFTPTDWHLLRKCPTPVLLIKNSDWPEQANILASVHVGSENPTHIDLNDAMVERLKEMSNRLDAEPYLVNAYPVTPANITIELPEFDPTTYTDAVRGHHLTAMKALRQKHGIDEEQT | not soluble
14 | MDIPQDSYDLVVVGGGTSGVFAAISAARRGLRVALVEASGMLGGTLTQVTLGGICGAWTGTAHTQVVHGLFDEFVHAMRKAQACDGLYSYGHVTALPYEPVKVRYLLDQLLPPNVTTFFHSRLFAVDMEGERIARVHLAGVEGPFSLAARAYVDATGNASLAGLCATPLRRGENGTVQAASSMFRVIGADVDPRVRDVRTEIRLAIEKHNASGQAEAFKRSAVAVYVHPDQRLLHFNATRVYFESTADDALAAALDMSRVETEARKEAFRLVELLKREVDGFANIEIVDLGSSVGVRDSRNIVNDHPLTEAMVRDGDKPANSVAYSAWPIEFHGSNTQTHWEPLEGDRYYGIPYESCLPQGIQNALVIGRAISSTPLAQASCRVTAPCIQMGESAGIAAHELVASSSRTAFSELASMKFILEHHHHHH | not soluble
15 | MPLDVALKRKYYEEVRPELIRRFGYQNVWEVPRLEKVVINQGLGEAKEDARILEKAAQELALITGQKPAVTRAKKSISNFKLRKGMPIGLRVTLRRDRMWIFLEKLLNVALPRIRDFRGLNPNSFDGRGNYNLGLREQLIFPEITYDMVDALRGMDIAVVTTAETDEEARALLELLGFPFRK | soluble
16 | MKSAEQWIDELQLESHPEGGFYRETIREVLKDGRRAPFSSIYFLLTDDNISHFHRIDADEVWYYHAGDSLTIHMINPDGEYTTATLGTDIQNGDVLQYVVPKGTIFASSIEFSNTYSLVGCMCQPAFEFKQFELFKQSELITQYPHLKSVIEKYALK | soluble
17 | MMTQIIHTEKAPAAIGPYVQAVDLGNLVLTSGQIPVNPATGEVPADIVAQARQSLENVKAIIEKAGLTAADIVKTTVFVKDLNDFAAVNAEYERFFKENNHPNFPARSCVEVARLPKDVGLEIEAIAVRK | soluble
18 | SADHDLFRETVYAESLDEALERYSVDTVGDSELATLLPHIEKTFGFPTWAQINEALDTYPDREFVNTVTELLSTANPESLVAAVELMVASARSTTLREELDHEVVLGEYIRSRPNFAEGVRAVLVDKDRNADFTPATTGEVDVTPMRKLLKN | not soluble
19 | MSTMGNEASYPAEMCSHFDNDEIKRLGRRFKKLDLDKSGSLSVEEFMSLPELRHNPLVRRVIDVFDTDGDGEVDFKEFILGTSQFSVKGDEEQKLRFAFSIYDMDKDGYISNGELFQVLKMMVGNNLTDWQLQQLVDKTIIILDKDGDGKISFEEFSAVVRDLEIHKKLVLIV | soluble
